From patent US20030143595A1

Target: Shh-AP fusion protein (Sonic hedgehog fused to alkaline phosphatase)
Assay: ligand-receptor binding study, Scatchard analysis (FIG. 3)

Sequence of Shh-AP fusion protein (Sonic hedgehog fused to alkaline phosphatase) (Q62226 25-198): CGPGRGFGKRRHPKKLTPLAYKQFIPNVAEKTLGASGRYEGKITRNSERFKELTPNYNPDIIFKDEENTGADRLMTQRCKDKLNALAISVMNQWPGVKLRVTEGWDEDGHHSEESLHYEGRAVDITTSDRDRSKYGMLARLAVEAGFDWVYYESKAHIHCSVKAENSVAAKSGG

B1: murine HIP polypeptide (mouse hedgehog interacting protein) (receptor)
chain: LGFFEGDAKFGERSEGSGARRRRCLNGNPPKRLKRRDRRVMSQLELLSGGEILCGGFYPRVSCCLQSDSPGLGRLENKIFSATNNSECSRLLEEIQCAPCSPHSQSLFYTPERDVLDGDLALPLLCKDYCKEFFYTCRGHIPGLLQTTADEFCFYYARKDAGLCFPDFPRKQVRGPASNYLGQMEDYEKVGGISRKHKHNCLCVQEVMSGLRQPVSAVHSGDGSHRLFILEKEGYVKILTPEGELFKEPYLDIHKLVQSGIKGGDERGLLSLAFHPNYKKNGKLYVSYTTNQERWAIGPHDHILRVVEYTVSRKNPHQVDVRTARVFLEVAELHRKHLGGQLLFGPDGFLYIILGDGMITLDDMEEMDGLSDFTGSVLRLDVDTDMCNVPYSIPRSNPHFNSTNQPPEVFAHGLHDPGRCAVDRHPTDININLTILCSDSNGKNRSSARILQIIKGRDYESEPSLLEFKPFSNGPLVGGFVYRGCQSERLYGSYVFGDRNGNFLTLQQSPVTKQWQEKPLCLGASSSCRGYFSGHILGFGEDELGEVYILSSSKSMTQTHNGKLYKIVDPKRPLMPEECRVTVQPAQPLTSDCSRLCRNGYYTPTGKCCCSPGWEGDFCRIAKCEPACRHGGVCVRPNKCLCKKGYLGPQCEQVDRNVRRVTRAGILDQIIDMTSYLLDLTSYIV
For B1, the Kd was 1 nM.
